Earlier results on one molecule are cited in paper PMC7602980 (Biomolecules, 2020).

The data set deals with Cx43CT. As to conditions: compared with CaM; no reference printed beside the value; Drebrin–Cx43 interaction ref [78]; read-out: binding affinity Drebrin for Cx43CT, as quoted in discussion. An excerpt:
While CaM can be seen as mimicking P ...

B1: Drebrin: developmentally regulated brain protein, linker between Cx43 gap junctions and actin/submembrane cytoskeleton (protein, UniProt Q16643 2-649, looked up)
Drebrin: AGVSFSGHRLELLAAYEEVIREESAADWALYTYEDGSDDLKLAASGEGGLQELSGHFENQKVMYGFCSVKDSQAALPKYVLINWVGEDVPDARKCACASHVAKVAEFFQGVDVIVNASSVEDIDAGAIGQRLSNGLARLSSPVLHRLRLREDENAEPVGTTYQKTDAAVEMKRINREQFWEQAKKEEELRKEEERKKALDERLRFEQERMEQERQEQEERERRYREREQQIEEHRRKQQTLEAEEAKRRLKEQSIFGDHRDEEEETHMKKSESEVEEAAAIIAQRPDNPREFFKQQERVASASAGSCDVPSPFNHRPGSHLDSHRRMAPTPIPTRSPSDSSTASTPVAEQIERALDEVTSSQPPPLPPPPPPAQETQEPSPILDSEETRAAAPQAWAGPMEEPPQAQAPPRGPGSPAEDLMFMESAEQAVLAAPVEPATADATEIHDAADTIETDTATADTTVANNVPPAATSLIDLWPGNGEGASTLQGEPRAPTPPSGTEVTLAEVPLLDEVAPEPLLPAGEGCATLLNFDELPEPPATFCDPEEVEGESLAAPQTPTLPSALEELEQEQEPEPHLLTNGETTQKEGTQASEGYFSQSQEEEFAQSEELCAKAPPPVFYNKPPEIDITCWDADPVPEEEEGFEGGD
For B1, the Kd is around 300 µM.
